# Results: publication doi:10.1101/2021.05.11.443658 (bioRxiv, 2021)
# B1: Thioredoxin-His-tagged OsbZIP47 full-length protein (natural protein, rice (Oryza sativa), UniProt Q5Z6N9 1-385, looked up)
# chain: MAAHQGMAAATAADRFCLPRMAAAAAAASQVENWGDSGVIVSSPFTDDTSTDLDDSADKHHLHALVGGGDGGDDAGEQRGADSSAVSKERRGDQKMQRRLAQNREAARKSRMRKKAYIQQLESSRSKLMHLEQELQRARQQGIFIATGGSGDHGHSIGGNGTLAFDLEYARWLDEHQRHINDLRVALNAQMSDDELCELVDAVMMHYDQVFRLKSFATKSDVFHVLSGMWMSPAERFFMWLGGFRSSELLKVLASHLEPLTDQQLMGICNLQQSSQQAEDALSQGMEALQQTLGDTLVSAAATVVSGGGGADNVTNYMGQMAIAMAKLTTLENFLRQADLLRHQTLQQMHRILTTRQAARALLVISDYFSRLRALSSLWLARPRD
# Target: the molecule itself
# Experiment: non-reducing SDS-PAGE
protein,measurement,value
B1,binding result,binds
